One may read the pKd as the Kd on a negative log10 scale, so that one unit is a factor of ten. The low end stands for a large Kd, the high end for a small Kd.

pKd: −log10 of the molar value.

We go through one substance from patent publication US7153654.

For the test, the target named is anti-hCG monoclonal antibody from Organon Teknika. In words: competition: hCG displaces FpepT (5.5×10^-8 M) from anti-hCG Mab (4.5×10^-8 M), fluorescence EX=561 nm EM=590 nm; K1 of the fit.

Take “human chorionic gonadotrophin (hCG) (from UniProt P01215 25-116; P0DN86 21-165) (ligand)”: the negative logarithm of the Kd (pKd) is 9.31.
